Results as given in patent publication US20230407373A1 (priority 2020, published 2023).
Where two headings read alike, the source gives them in different places.

B1: U2AF2 (protein, UniProt P26368 2-475, looked up)
Splicing factor U2AF 65 kDa …: SDFDEFERQLNENKQERDKENRHRKRSHSRSRSRDRKRRSRSRDRRNRDQRSASRDRRRRSKPLTRGAKEEHGGLIRSPRHEKKKKVRKYWDVPPPGFEHITPMQYKAMQAAGQIPATALLPTMTPDGLAVTPTPVPVVGSQMTRQARRLYVGNIPFGITEEAMMDFFNAQMRLGGLTQAPGNPVLAVQINQDKNFAFLEFRSVDETTQAMAFDGIIFQGQSLKIRRPHDYQPLPGMSENPSVYVPGVVSTVVPDSAHKLFIGGLPNYLNDDQVKELLTSFGPLKAFNLVKDSATGLSKGYAFCEYVDINVTDQAIAGLNGMQLGDKKLLVQRASVGAKNATLVSPPSTINQTPVTLQVPGLMSSQVQMGGHPTEVLCLMNMVLPEELLDDEEYEEIVEDVRDECSKYGLVKSIEIPRPVDGVEVPGCGKIFVEFTSVFDCQKAMQGLTGRKFANRVVVTKYCDPDSYHRRDFW
B2: HNRNPM (protein, UniProt P52272 2-730, looked up)
Heterogeneous nuclear …: AAGVEAAAEVAATEIKMEEESGAPGVPSGNGAPGPKGEGERPAQNEKRKEKNIKRGGNRFEPYANPTKRYRAFITNIPFDVKWQSLKDLVKEKVGEVTYVELLMDAEGKSRGCAVVEFKMEESMKKAAEVLNKHSLSGRPLKVKEDPDGEHARRAMQKVMATTGGMGMGPGGPGMITIPPSILNNPNIPNEIIHALQAGRLGSTVFVANLDYKVGWKKLKEVFSMAGVVVRADILEDKDGKSRGIGTVTFEQSIEAVQAISMFNGQLLFDRPMHVKMDERALPKGDFFPPERPQQLPHGLGGIGMGLGPGGQPIDANHLNKGIGMGNIGPAGMGMEGIGFGINKMGGMEGPFGGGMENMGRFGSGMNMGRINEILSNALKRGEIIAKQGGGGGGGSVPGIERMGPGIDRLGGAGMERMGAGLGHGMDRVGSEIERMGLVMDRMGSVERMGSGIERMGPLGLDHMASSIERMGQTMERIGSGVERMGAGMGFGLERMAAPIDRVGQTIERMGSGVERMGPAIERMGLSMERMVPAGMGAGLERMGPVMDRMATGLERMGANNLERMGLERMGANSLERMGLERMGANSLERMGPAMGPALGAGIERMGLAMGGGGGASFDRAIEMERGNFGGSFAGSFGGAGGHAPGVARKACQIFVRNLPFDFTWKMLKDKFNECGHVLYADIKMENGKSKGCGVVKFESPEVAERACRMMNGMKLSGREIDVRIDRNA
B3: HNRNPUL2: host protein, UniProt Q1KMD3 (protein, UniProt Q1KMD3 1-747, looked up)
Heterogeneous nuclear …: MEVKRLKVTELRSELQRRGLDSRGLKVDLAQRLQEALDAEMLEDEAGGGGAGPGGACKAEPRPVAASGGGPGGDEEEDEEEEEEDEEALLEDEDEEPPPAQALGQAAQPPPEPPEAAAMEAAAEPDASEKPAEATAGSGGVNGGEEQGLGKREEDEPEERSGDETPGSEVPGDKAAEEQGDDQDSEKSKPAGSDGERRGVKRQRDEKDEHGRAYYEFREEAYHSRSKSPLPPEEEAKDEEEDQTLVNLDTYTSDLHFQVSKDRYGGQPLFSEKFPTLWSGARSTYGVTKGKVCFEAKVTQNLPMKEGCTEVSLLRVGWSVDFSRPQLGEDEFSYGFDGRGLKAENGQFEEFGQTFGENDVIGCFANFETEEVELSFSKNGEDLGVAFWISKDSLADRALLPHVLCKNCVVELNFGQKEEPFFPPPEEFVFIHAVPVEERVRTAVPPKTIEECEVILMVGLPGSGKTQWALKYAKENPEKRYNVLGAETVLNQMRMKGLEEPEMDPKSRDLLVQQASQCLSKLVQIASRTKRNFILDQCNVYNSGQRRKLLLFKTFSRKVVVVVPNEEDWKKRLELRKEVEGDDVPESIMLEMKANFSLPEKCDYMDEVTYGELEKEEAQPIVTKYKEEARKLLPPSEKRTNRRNNRNKRNRQNRSRGQGYVGGQRRGYDNRAYGQQYWGQPGNRGGYRNFYDRYRGDYDRFYGRDYEYNRYRDYYRQYNRDWQSYYYHHPQDRDRYYRNYYGYQGYR
B4: THRAP3: host protein, UniProt Q9Y2W1 (protein, UniProt Q9Y2W1 2-955, looked up)
Thyroid hormone …: SKTNKSKSGSRSSRSRSASRSRSRSFSKSRSRSRSLSRSRKRRLSSRSRSRSYSPAHNRERNHPRVYQNRDFRGHNRGYRRPYYFRGRNRGFYPWGQYNRGGYGNYRSNWQNYRQAYSPRRGRSRSRSPKRRSPSPRSRSHSRNSDKSSSDRSRRSSSSRSSSNHSRVESSKRKSAKEKKSSSKDSRPSQAAGDNQGDEAKEQTFSGGTSQDTKASESSKPWPDATYGTGSASRASAVSELSPRERSPALKSPLQSVVVRRRSPRPSPVPKPSPPLSSTSQMGSTLPSGAGYQSGTHQGQFDHGSGSLSPSKKSPVGKSPPSTGSTYGSSQKEESAASGGAAYTKRYLEEQKTENGKDKEQKQTNTDKEKIKEKGSFSDTGLGDGKMKSDSFAPKTDSEKPFRGSQSPKRYKLRDDFEKKMADFHKEEMDDQDKDKAKGRKESEFDDEPKFMSKVIGANKNQEEEKSGKWEGLVYAPPGKEKQRKTEELEEESFPERSKKEDRGKRSEGGHRGFVPEKNFRVTAYKAVQEKSSSPPPRKTSESRDKLGAKGDFPTGKSSFSITREAQVNVRMDSFDEDLARPSGLLAQERKLCRDLVHSNKKEQEFRSIFQHIQSAQSQRSPSELFAQHIVTIVHHVKEHHFGSSGMTLHERFTKYLKRGTEQEAAKNKKSPEIHRRIDISPSTFRKHGLAHDEMKSPREPGYKAEGKYKDDPVDLRLDIERRKKHKERDLKRGKSRESVDSRDSSHSRERSAEKTEKTHKGSKKQKKHRRARDRSRSSSSSSQSSHSYKAEEYTEETEEREESTTGFDKSRLGTKDFVGPSERGGGRARGTFQFRARGRGWGRGNYSGNNNNNSNNDFQKRNREEEWDPEYTPKSKKYYLHDDREGEGSDKWVSRGRGRGAFPRGRGRFMFRKSSTSPKWAHDKFSGEEGEIEDDESGTENREEKDNIQPTTE
B5: RTCB (protein, UniProt Q9Y3I0 1-505, looked up)
RNA-splicing ligase RtcB …: MSRSYNDELQFLEKINKNCWRIKKGFVPNMQVEGVFYVNDALEKLMFEELRNACRGGGVGGFLPAMKQIGNVAALPGIVHRSIGLPDVHSGYGFAIGNMAAFDMNDPEAVVSPGGVGFDINCGVRLLRTNLDESDVQPVKEQLAQAMFDHIPVGVGSKGVIPMNAKDLEEALEMGVDWSLREGYAWAEDKEHCEEYGRMLQADPNKVSARAKKRGLPQLGTLGAGNHYAEIQVVDEIFNEYAAKKMGIDHKGQVCVMIHSGSRGLGHQVATDALVAMEKAMKRDKIIVNDRQLACARIASPEGQDYLKGMAAAGNYAWVNRSSMTFLTRQAFAKVFNTTPDDLDLHVIYDVSHNIAKVEQHVVDGKERTLLVHRKGSTRAFPPHHPLIAVDYQLTGQPVLIGGTMGTCSYVLTGTEQGMTETFGTTCHGAGRALSRAKSRRNLDFQDVLDKLADMGIAIRVASPKLVMEEAPESYKNVTDVVNTCHDAGISKKAIKLRPIAVIKG

What was measured:
Assay type in all cases: binding
SARS-CoV-2 gRNA = settings: […]; LC-MS/MS; Probe I sample (first 199 lines of Table 2)
[1] = test system: SARS-CoV-2 gRNA and sgRNAs; settings: for target (unweighted spectral count of the protein in the RNP capture experiment): LC-MS/MS label-free quantification, probe pool not given; for back-ground (unweighted spectral count of the protein in the control experiment): protein background of the control (e.g. no-probe) experiment; for target (unweighted spectral count in RNP capture): Probe II capture, LC-MS/MS LFQ; for background (unweighted spectral count in control): no-probe control pull-down, used as background for Probe II
gRNA of HCoV-OC43 = settings: for target (spectral count, OC43 Probe I RNP capture) / background (spectral count, no-probe control): type n_48_v: 48 hours post-infection; for target (spectral count, OC43 Probe I RNP capture): infected cells, unweighted spectral count; for background (spectral count, no-probe control): no-probe control on infected cells; for target (spectral count) / background (spectral count): type g_36_m, 36 hpi, Probe I; for target (spectral count): HCoV-OC43-infected HCT-8 cells; for background (spectral count): uninfected-probe control
HCoV-OC43 gRNA and sgRNA = settings: for target (unweighted spectral count, OC43 Probe II capture) / target (unweighted spectral count): tested against no-probe control; for target (unweighted spectral count, OC43 Probe II capture): FDR<10%; for target (unweighted spectral count): OC43 Probe II, infected cells; for target (unweighted spectral count, OC43 Probe II) / background (unweighted spectral count, no-probe control): type n_48_v, 48 hpi; for target (unweighted spectral count, OC43 Probe II): OC43 Probe II capture on infected cells; for background (unweighted spectral count, no-probe control): no-probe control on infected cells

| Molecule | target (unweighted spectral count of the protein in the RNP capture) (SARS-CoV-2 gRNA) | target (unweighted spectral count of the protein in the RNP capture experiment) [1] | back-ground (unweighted spectral count of the protein in the control experiment) [1] | target (spectral count, OC43 Probe I RNP capture) (gRNA of HCoV-OC43) | background (spectral count, no-probe control) (gRNA of HCoV-OC43) | target (unweighted spectral count, OC43 Probe II capture) (HCoV-OC43 gRNA and sgRNA; 36 hpi, type n_36_v) | target (unweighted spectral count) (HCoV-OC43 gRNA and sgRNA; 12 hpi (type n_12_v)) | target (unweighted spectral count, OC43 Probe II) (HCoV-OC43 gRNA and sgRNA) | background (unweighted spectral count, no-probe control) (HCoV-OC43 gRNA and sgRNA) | target (unweighted spectral count in RNP capture) [1] | background (unweighted spectral count in control) [1] | target (unweighted spectral count) (HCoV-OC43 gRNA and sgRNA; 24 hpi (type n_24_v)) | target (spectral count) (gRNA of HCoV-OC43) | background (spectral count) (gRNA of HCoV-OC43) | target (spectral count) (HCoV-OC43 gRNA and sgRNA; type s_36_m, HCoV-OC43-infected HCT-8 cells, 36 hpi, Probe II) | background (spectral count) (HCoV-OC43 gRNA and sgRNA; type s_36_m, uninfected-probe control, 36 hpi, Probe II) | target (unweighted spectral count, OC43 Probe II capture) (HCoV-OC43 gRNA and sgRNA; 24 hpi, type n_24_v) |
| --- | --- | --- | --- | --- | --- | --- | --- | --- | --- | --- | --- | --- | --- | --- | --- | --- | --- |
| B1 | 7 | 6 | 1 | 8 | 1 | 6 | 5 | 12 | 1 |  |  |  |  |  |  |  |  |
| B2 | 71 |  |  | 65 | 7 | 73 | 22 |  |  | 53 | 1 | 34 |  |  |  |  |  |
| B3 | 6 | 5 | 1 | 33 | 2 | 14 | 6 | 25 | 2 |  |  | 11 | 24 | 3 | 14 | 1 |  |
| B4 | 7 | 6 | 1 | 10 | 2 | 12 |  | 13 | 2 |  |  |  | 8 | 1 |  |  |  |
| B5 | 6 |  |  | 7 | 1 | 6 |  | 7 | 1 | 14 | 1 |  |  |  |  |  | 4 |
